From patent publication US6544767 (AXYS PHARMACEUTICALS, dated 2003)

Molecular target: T1, mature recombinant human cathepsin O2 (human, UniProt P43235 115-329)
T1 construct: also called parent enzyme; mature enzyme
T1 sequence: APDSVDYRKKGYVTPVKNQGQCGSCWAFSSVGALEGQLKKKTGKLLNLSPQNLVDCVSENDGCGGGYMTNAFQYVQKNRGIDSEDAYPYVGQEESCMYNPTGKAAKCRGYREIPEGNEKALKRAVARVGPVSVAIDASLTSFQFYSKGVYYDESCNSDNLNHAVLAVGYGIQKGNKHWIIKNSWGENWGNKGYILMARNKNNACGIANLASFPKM
Assay: inhibition of enzyme activity; assay not detailed in Example 3

B1: propart of human cathepsin O2 (expressed separately in the pTrcHis vector, six-histidine metal binding domain) (other)
chain: LYPEEILDTHWELWKKTHRKQYNNKVDEISRRLIWEKNLKYISIHNLEASLGVHTYELAMNHLGDMTSEEVVQKMTGLKVPLSHSRSNDTLYIPEWEGR
notes: Tag removal is not mentioned; also called proregion; not shown: vector-encoded leader of pTrcHis with a series of six histidine residues
- Ki: 0.1 nM
